Data as given in patent US20160053025A1 (SAMSUNG ELECTRONICS, published 2016).
Residue numbers refer to the chain shown, from its start.

Legend:
[1] = target: T1, recombinant hAng-2 (C-His, R&D Systems) (human, UniProt O15123 19-496); test: SPR, BIAcore T100; hAng-2 (C-His) captured by anti-His antibody on CM5, antibody as analyte
T1 construct: Bought protein; also called human Ang-2 protein; C-terminal histidine-tagged human Ang2 (R&D Systems); not shown: C-terminal His tag
T1 sequence: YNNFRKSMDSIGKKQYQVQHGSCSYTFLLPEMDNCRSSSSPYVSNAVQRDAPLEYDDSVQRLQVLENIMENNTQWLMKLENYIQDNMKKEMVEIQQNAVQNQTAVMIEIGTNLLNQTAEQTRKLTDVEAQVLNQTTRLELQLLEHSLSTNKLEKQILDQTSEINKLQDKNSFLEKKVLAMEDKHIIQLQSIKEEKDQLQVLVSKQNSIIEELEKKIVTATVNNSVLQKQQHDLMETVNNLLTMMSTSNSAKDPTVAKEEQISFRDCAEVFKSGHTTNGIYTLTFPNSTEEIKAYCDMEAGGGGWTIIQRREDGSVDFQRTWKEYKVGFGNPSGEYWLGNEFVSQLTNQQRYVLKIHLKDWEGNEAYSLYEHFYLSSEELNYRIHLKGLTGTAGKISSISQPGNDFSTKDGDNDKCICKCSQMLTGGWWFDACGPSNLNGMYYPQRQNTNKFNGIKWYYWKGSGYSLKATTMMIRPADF
Experimental: First, anti-His antibody was immobilized on a CM5 sensor chip (GE healthcare) up to 8,000 RU levels using a pH 5.0 acetate solution and an amine coupling kit (GE Healthcare). 6 μg/ml of a recombinant hAng-2 (C-His, R&D Systems) protein was flowed onto the chip to be captured at 100 to 200 RU levels.

[2] = target: Ang2 RBD A449 mutant (with alanine), FLAG-tagged (human) (UniProt O15123); test: ELISA, antibody coated, FLAG-tagged mutant Ang2 RBD detected with anti-FLAG-HRP
[3] = target: T1, recombinant hAng-2 (C-His, R&D Systems); test: SPR, BIAcore T100; hAng2 (C-His) captured by anti-His antibody on CM5, antibody as analyte
Experimental: The binding affinity (KD values) of the antibodies to human Ang2 protein was measured by an SPR method using a BIAcore T100 (GE Healthcare). 25 μg/ml anti-His antibody was immobilized on a CM5 sensor chip (GE healthcare) using a pH 5.0 acetate solution and an amine coupling kit (GE Healthcare). 6 μg/ml of a recombinant hAng2 (C-His, R&D Systems) protein was flowed onto the chip to be captured at 100 to 200 RU levels.

[4] = target: T2, Ang2 RBD Q418A, FLAG-tagged (human, UniProt O15123 281-496, limits assumed); test: ELISA, antibody coated, FLAG-tagged mutant Ang2 RBD detected with anti-FLAG-HRP
T2 chain: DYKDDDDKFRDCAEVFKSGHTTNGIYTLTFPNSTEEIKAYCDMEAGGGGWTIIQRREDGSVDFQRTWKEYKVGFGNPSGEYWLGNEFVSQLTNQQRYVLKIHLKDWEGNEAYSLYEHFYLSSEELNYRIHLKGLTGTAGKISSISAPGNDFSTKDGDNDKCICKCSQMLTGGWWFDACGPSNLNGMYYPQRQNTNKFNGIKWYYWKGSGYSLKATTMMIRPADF
Experimental: (§1) To verify the epitope (or specific binding site) of the anti-Ang2 antibody prepared in Reference Example 2.3, an ELISA was performed using a recombinant protein where a receptor binding domain (RBD) of Ang2 protein in the form of being tagged with Flag was mutated by artificial means.
(§2) Each well of a 96-well MaxiSorp™ flat-bottom plate (Nunc) was coated with 50 ul (microliter) of 1000 nM antibody. Then, the plate was washed five times with 0.05% (v/v) Tween-20-containing PBS (PBST) and blocked with 1% (v/v) BSA-containing PBS at a room temperature for 2 hours. 250 ng of each mutant Ang2 protein obtained by substituting S417, Q418, P419, N421, 1434, D448, A449, P452, Y460, N467, K468, or F469 residue of Ang2 protein tagged with a FLAG sequence ([…], Sigma) at its N-terminal with alanine was added to each well of the plate, which was then allowed to react at a room temperature for 2 hours.
(§3) Finally, 50 ul of TMB substrates (Cell signaling) was added to each well of the plate to induce color development at a room temperature for 3 min. and the reaction was ceased by the addition of 50 ul of Stop solution (Cell signaling) and then, OD450 values were measured on a plate reader (Molecular Devices). By comparing binding affinities with mutated Ang2 to those of unmutated Ang2, each epitope of Ang2 antibodies was identified. The obtained measurement results of the binding affinities (%) with mutant Ang2 against the binding affinity with the native Ang2 are shown in the following Table 13.

[5] = target: T3, Ang2 RBD I434A, FLAG-tagged (human, UniProt O15123 281-496, limits assumed); test: as above
T3 construct: Printed as '1434', read as I434
T3 chain: T2 chain with A146Q, I162A
Experimental: as §1, §2, §3

[6] = target: T4, Ang2 RBD P452A, FLAG-tagged (human, UniProt O15123 281-496, limits assumed); test: as above
T4 chain: T2 chain with A146Q, P180A
Experimental: as §1, §2, §3

B1: SAIT-ANG2-AB-m10D6 (antibody, V domains shown)
VH: DVQLQESGPDLVKPSQSLSLTCTVTGYSITSDYAWNWIRQFPGNKLEWMGYINYSGNTDYNPSLKSRSSITRDTSKNQFFLQLNSVTTGDTATYYCARGNFEGAMDYWGQGTSVTVSS
VL: SIVMTQTPKFLLVSAGDRVTITCKASQSVSNDVAWYQQKPGQSPKLLIYYASNRYPGVPDRFTGSGYGTDFTFTISTVQAEDLAVYFCQQDYSSPWTFGGGTKLEIK
notes: Mouse monoclonal antibody purified from a hybridoma (KCLRF-BP-00295); it is not applied here; also called mouse antibody 10D6; 10D6 antibody
[1]
  Kd: 8 nM
[2]
  binding affinity (%) with mutant Ang2 against the binding affinity with the native Ang2: 97.9%
[3]
  Kd: 8 nM
  koff: 0.000193 s⁻¹
  kon: 24100 M⁻¹ s⁻¹
[4]
  binding affinity (%) with mutant Ang2 against the binding affinity with the native Ang2: 38.9%
[5]
  binding affinity (%) with mutant Ang2 against the binding affinity with the native Ang2: 109%
[6]
  binding affinity (%) with mutant Ang2 against the binding affinity with the native Ang2: 102%
